The values below come from paper doi:10.1101/2021.10.01.462762 (bioRxiv, 2021).

One data set deals with Cra (Escherichia coli, UniProt P0ACP1 1-334). The data set can be described thus: EMSA.
The next data set concerns the target PdeL;Cra (Escherichia coli;Escherichia coli, UniProt P21514;P0ACP1 1-362;1-334, |). The data set can be described thus: EMSA. (A gel shift assay detects complexes by their altered migration in electrophoresis.)
The data set “SEC-MALS” deals with the molecule itself. The data set can be described thus: SEC-MALS. For orientation: Size exclusion chromatography separates by hydrodynamic size, large species first.
The data set “mass photometry” deals with the molecule itself. The data set can be described thus: mass photometry.
The data set “MST” deals with the molecule itself. The data set can be described thus: MST.

Cra, sequence (P0ACP1 whole entry): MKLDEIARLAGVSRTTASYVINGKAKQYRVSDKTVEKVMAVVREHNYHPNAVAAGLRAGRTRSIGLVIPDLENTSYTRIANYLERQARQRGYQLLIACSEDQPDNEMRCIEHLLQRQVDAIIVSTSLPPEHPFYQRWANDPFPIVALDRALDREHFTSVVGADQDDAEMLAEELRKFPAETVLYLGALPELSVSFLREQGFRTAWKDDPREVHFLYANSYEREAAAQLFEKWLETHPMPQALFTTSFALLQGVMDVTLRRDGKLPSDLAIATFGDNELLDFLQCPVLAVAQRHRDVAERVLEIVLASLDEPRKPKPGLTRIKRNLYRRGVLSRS
PdeL;Cra, sequence (P0ACP1 whole entry, chain 2 of 2, one chain of several): as the sequence (P0ACP1 whole entry) above

B1: CB CDB oligo (4695/4696) (dsDNA)
DNA 1: TGCTGAATGGATTCAGTCTTAATGAGTGGG
DNA 2: CCCACTCATTAAGACTGAATCCATTCAGCA
By Kd is commonly meant a measure of binding affinity in units of concentration. As for B1, the Kd came out at 49 nM with Cra and 76 nM with PdeL;Cra.

B2: PdeL, full-length c-di-GMP phosphodiesterase and transcription factor of E. coli (enzyme, UniProt P21514 1-362, looked up)
chain: MNSCDFRVFLQEFGTTVHLSLPGSVSEKERLLLKLLMQGMSVTEISQYRNRSAKTISHQKKQLFEKLGIQSDITFWRDIFFQYNPEIISATGSNSHRYINDNHYHHIVTPEAISLALENHEFKPWIQPVFCAQTGVLTGCEVLVRWEHPQTGIIPPDQFIPLAESSGLIVIMTRQLMKQTADILMPVKHLLPDNFHIGINVSAGCFLAAGFEKECLNLVNKLGNDKIKLVLELTERNPIPVTPEARAIFDSLHQHNITFALDDFGTGYATYRYLQAFPVDFIKIDKSFVQMASVDEISGHIVDNIVELARKPGLSIVAEGVETQEQADLMIGKGVHFLQGYLYSPPVPGNKFISEWVMKAGG
For orientation: stoichiometry N means the number of molecules, sites or subunits per partner or assembly. In the case of B2, the “stoichiometry N” value amounted to 4 in “SEC-MALS” and 2 in “mass photometry”. This molecule also had a dissociation constant Kd in the data set “MST” of 9000 nM.

B3: PdeL L168R, tetramerization-deficient variant (enzyme, E. coli)
chain: NSCDFRVFLQEFGTTVHLSLPGSVSEKERLLLKLLMQGMSVTEISQYRNRSAKTISHQKKQLFEKLGIQSDITFWRDIFFQYNPEIISATGSNSHRYINDNHYHHIVTPEAISLALENHEFKPWIQPVFCAQTGVLTGCEVLVRWEHPQTGIIPPDQFIPLAESSGRIVIMTRQLMKQTADILMPVKHLLPDNFHIGINVSAGCFLAAGFEKECLNLVNKLGNDKIKLVLELTERNPIPVTPEARAIFDSLHQHNITFALDDFGTGYATYRYLQAFPVDFIKIDKSFVQMASVDEISGHIVDNIVELARKPGLSIVAEGVETQEQADLMIGKGVHFLQGYLYSPPVPGNKFISEWVMKAGG
For the molecule B3, the “stoichiometry N” value in the data set “SEC-MALS” was 2.
